Test results reported in PMC6175910.

What was measured:
[1] = target: Msm RbpA/sigmaA RNAP holoenzyme (wild type) (Mycobacterium smegmatis (strain MGM6029), UniProt A0QSL8;P60281;A0QS66;A0QWT1;A0QW02;A0QZ11 1-350;1-1169;1-1317;1-107;1-466;1-114); assay: X-ray crystallography (3.05 A); Rif soaked in; Footprinting: 10 mM Tris-HCl pH 8, 10 mM K-glutamate, 5 mM MgCl2, 0.1 mM DTT, 15 ug/mL BSA, 37 C, 400 nM RNAP; crystals: 0.1 M Bis-Tris pH 6.0, 0.2 M LiSO4, 16% PEG 3350, 2.5% ethylene glycol, 22 C; settings: protein: recombinant; tags: beta' C-terminal ppx-His10; chain copies: 2;1;1;1;1;1; 3' overhang 5 nt on strand 1 (upstream fork), other end blunt
[2] = target: Msm RbpA/sigmaA RNAP holoenzyme, beta S447L (Mycobacterium smegmatis (strain MGM6029), UniProt A0QSL8;P60281;A0QS66;A0QWT1;A0QW02;A0QZ11 1-350;1-1169;1-1317;1-107;1-466;1-114, S447L); assay: X-ray crystallography (3.45 A); Kang A soaked in; Footprinting: 10 mM Tris-HCl pH 8, 10 mM K-glutamate, 5 mM MgCl2, 0.1 mM DTT, 15 ug/mL BSA, 37 C, 400 nM RNAP; crystals: 0.1 M Bis-Tris pH 6.0, 0.2 M LiSO4, 16% PEG 3350, 2.5% ethylene glycol, 22 C; settings: protein: recombinant; tags: beta' C-terminal ppx-His10; chain copies: 2;1;1;1;1;1

B1: Usfork_T10 upstream fork promoter DNA (dsDNA)
DNA 1: GCTTGACAAAAGTGTTAAATTGTGCTATACT
DNA 2: AGCACAATTTAACACTTTTGTCAAGC
binding result [1]: binds | binding result [2]: binds
